{"source": "patent US20090004190A1", "about": "“Rage Fusion Proteins And Methods Of Use” (priority 2006, published 2009)", "molecules": {"B1": {"name": "TTP-4000: four domain RAGE fusion protein: human RAGE V and C1 domains with interdomain linkers (to residue 251) fused to human IgG1 CH2 and CH3; SEQ ID NO: 34/56 (protein, listed as Homo sapiens)", "chain": "QNITARIGEPLVLKCKGAPKKPPQRLEWKLNTGRTEAWKVLSPQGGGPWDSVARVLPNGSLFLPAVGIQDEGIFRCQAMNRNGKETKSNYRVRVYQIPGKPEIVDSASELTAGVPNKVGTCVSEGSYPAGTLSWHLDGKPLVPNEKGVSVKEQTRRHPETGLFTLQSELMVTPARGGDPRPTFSCSFSPGLPRHRALRTAPIQPRVWEPVPLEEVQLVVEPEGGAVAPPSVFLFPPKPKDTLMISRTPEVTCVVVDVSHEDPEVKFNWYVDGVEVHNAKTKPREEQYNSTYRVVSVLTVLHQDWLNGKEYKCKVSNKALPAPIEKTISKAKGQPREPQVYTLPPSRDELTKNQVSLTCLVKGFYPSDIAVEWESNGQPENNYKTTPPVLDSDGSFFLYSKLTVDKSRWQQGNVFSCSVMHEALHNHYTQKSLSLSPGK"}}, "key": {"[1]": {"system": "transgenic mice expressing human Swedish mutant APP", "assay": "Mouse model of AD (APP transgenic mice): amyloid deposition and Morris water maze", "type": "in vivo", "protocol": "Experiments were performed to evaluate whether TTP-4000 could affect amyloid formation and cognitive dysfunction in a mouse model of AD. The experiments utilized transgenic mice expressing the human Swedish mutant amyloid precursor protein (APP) under the control of the PDGF-B chain promoter. Over time, these mice generate high levels of the RAGE ligand, amyloid beta (Aβ).\nThe APP mice (male) used in this experiment were designed by microinjection of the human APP gene (with the Swedish and London mutations) into mouse eggs under the control of the platelet-derived growth factor B (PDGF-B) chain gene promoter. The mice were generated on a C57BL/6 background and were developed by Molecular Therapeutics Inc. Animals were fed ad libitum and maintained by brother sister mating. The mice generated from this construct develop amyloid deposits starting at 6 months of age. Animals were aged for 6 months and then maintained for 90 days and sacrificed for amyloid quantification.\nAPP transgenic mice were administered vehicle or TTP4000 every other day [qod (i.p.)] for 90 days starting at 6 months of age. At the end of the experiment, animals were sacrificed and examined for Aβ plaque burden in the brain (i.e., plaque number). A 6-month control APP group was used to determine the baseline of amyloid deposits. In addition, at the end of the study, the animals were subjected to behavioral (Morris water maze) analysis. The investigators were blinded to the study compounds. Samples were given to the mice at 0.25 ml/mouse/every other day.\nFor histological examination, the animals were anesthetized with an intraperitoneal injection (IP) of sodium pentobarbital (50 mg/kg). The animals were transcardially perfused with 4° C., phosphate-buffered saline (PBS) followed by 4% paraformaldehyde. The brains were removed and placed in 4% paraformaldehyde over night. The brains were processed to paraffin and embedded. Ten serial 30-μm thick sections through the brain were obtained. Sections were subjected to primary antibody overnight at 4° C. (Aβ peptide antibody) in order to detect the amyloid deposits in the brain of the transgenic animals (Guo et al., J. Neurosci., 22:5900-5909 (2002)). Sections were washed in Tris-buffered saline (TBS) and secondary antibody was added and incubated for 1 hour at room temperature. After washing, the sections were incubated as instructed in the Vector ABC Elite kit (Vector Laboratories) and stained with […] (DAB). The reactions were stopped in water and cover-slipped after treatment with xylene. The amyloid area in each section was determined with a computer-assisted image analysis system, consisting of a Power Macintosh computer equipped with a Quick Capture frame grabber card, Hitachi CCD camera mounted on an Olympus microscope and camera stand. NIH Image Analysis Software, v. 1.55 was used. The images were captured and the total area of amyloid was determined over the ten sections. A single operator blinded to treatment status performed all measurements. Summing the amyloid volumes of the sections and dividing by the total number of sections was done to calculate the amyloid volume.\nFor quantitative analysis, an enzyme-linked immunosorbent assay (ELISA) was used to measure the levels of human total Aβ, Aβtotal and Aβ1-42 in the brains of APP transgenic mice (Biosource International, Camarillo, Calif.). Aβtotal and Aβ1-42 were extracted from mouse brains by guanidine hydrochloride and quantified as described by the manufacturer. […]"}, "[2]": {"system": "Zucker diabetic rats, restenosis following vascular injury", "assay": "Diabetic rat model of restenosis (balloon injury of left common carotid artery)", "type": "in vivo", "settings": "for Luminal area / Medial area: IP, 21 days", "protocol": "In these experiments, balloon injury of left common carotid artery was performed in Zucker diabetic and nondiabetic rats using standard procedure. […] A maintenance dose was delivered every other day until day 7 after injury (i.e., at day 1, 3, 5 and 7 after injury). The maintenance dose was high=1 mg/animal for one group, or low=0.3 mg/animal for the second group. To measure vascular smooth muscle cell (VSMC) proliferation, animals were sacrificed at 4 days and 21 days after injury.\nFor the measurement of cell proliferation, 4 day animals received intraperitoneal injection of bromodeoxyuridine (BrDdU) 50 mg/kg at 18, 12, and 2 hours before euthanasia. After sacrifice, the entire left and right carotid arteries were harvested. Specimens were stored in Histochoice for at least 24 hours before embedding. Assessment of VSMC proliferation was performed using mouse anti-BrdU monoclonal antibody. A fluorescence labeled goat anti-mouse secondary antibody was applied. The number of BrdU-positive nuclei per section were counted by two observers blinded to the treatment regimens.\nThe remaining rats were sacrificed at 21 days for morphometric analysis. Morphometric analyses were performed by an observer blinded to the study groups, using computerized digital microscopic planimetry software Image-Pro Plus on serial sections, ([…]) carotid arteries stained by Van Gieson staining. All data were expressed as mean±SD. Statistical analysis was performed with use of SPSS software. Continuous variables were compared using unpaired t tests. A values of P≦0.05 was considered to be statistically significant."}, "[3]": {"settings": "High dose 1.0 mg/animal qod × 4, loading dose 3 mg/animal"}, "[4]": {"settings": "Low dose 0.3 mg/animal qod × 4, loading dose 3 mg/animal"}}, "data": [{"molecule": "B1", "values": [{"measurement": "inflammatory cytokines IL-1 and TNF-α", "setting": "[1]; data not shown", "value": "can reduce"}, {"measurement": "Aβ plaques in the brain", "setting": "[1]; treated for 3 months, vs vehicle and human IgG1, FIG. 14A", "value": "fewer Aβ plaques"}, {"measurement": "cognitive dysfunction (Morris water maze)", "setting": "[1]; treated for 3 months, vs vehicle and human IgG1, FIG. 14B", "value": "less cognitive dysfunction"}, {"measurement": "vascular smooth muscle cell proliferation (BrdU-positive nuclei)", "setting": "[2]; 4 days after injury, dose-responsive, FIG. 13B", "value": "significantly reduced"}, {"measurement": "Luminal area", "setting": "[2]; [3]", "value": "0.16 ± 0.02", "unit": "mm^2"}, {"measurement": "Medial area", "setting": "[2]; [3]", "value": "0.11 ± 0.01", "unit": "mm^2"}, {"measurement": "Luminal area", "setting": "[2]; [4]", "value": "0.18 ± 0.04", "unit": "mm^2"}, {"measurement": "Medial area", "setting": "[2]; [4]", "value": "0.11 ± 0.02", "unit": "mm^2"}]}]}
